# Measured values published in paper doi:10.1101/2021.05.27.445985.
# Target: Cy5-labeled human neutrophil peptide 1 (HNP1) (human)
# Test: fluorescence polarisation
substance,measurement,value
Recombinant SARS-CoV-2 Spike glycoprotein (from UniProt P0DTC2) (natural protein),Kd,146 nM
